# In patent publication US20190077860A1 (EISAI R AND D MANAGEMENT, published 2019):
# Where a chain is given by its changes, count along the chain named.
# T1: human EphA1 extracellular region-SEAP-His protein (human, UniProt P21709 26-547)
# T1 construct: extracellular domain; also called hEphA1-SEAP-His
# T1 sequence (looked up): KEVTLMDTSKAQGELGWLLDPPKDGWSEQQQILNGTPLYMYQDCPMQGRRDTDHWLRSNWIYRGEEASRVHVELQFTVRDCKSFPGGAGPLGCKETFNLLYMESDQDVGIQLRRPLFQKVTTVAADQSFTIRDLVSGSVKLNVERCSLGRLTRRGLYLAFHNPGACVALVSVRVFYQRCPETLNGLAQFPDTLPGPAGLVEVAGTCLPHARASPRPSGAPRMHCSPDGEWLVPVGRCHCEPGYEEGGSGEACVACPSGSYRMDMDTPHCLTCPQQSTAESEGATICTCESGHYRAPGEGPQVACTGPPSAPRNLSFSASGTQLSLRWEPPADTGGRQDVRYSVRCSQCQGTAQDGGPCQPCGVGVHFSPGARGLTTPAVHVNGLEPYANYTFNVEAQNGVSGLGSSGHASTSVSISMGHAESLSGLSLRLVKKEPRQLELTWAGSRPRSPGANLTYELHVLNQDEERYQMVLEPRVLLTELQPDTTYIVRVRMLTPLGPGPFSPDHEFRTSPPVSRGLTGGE
# T2: human EphA7 extracellular region-SEAP-His protein (human, UniProt Q15375 28-555)
# T2 construct: extracellular domain; also called hEphA7-SEAP-His
# T2 sequence (looked up): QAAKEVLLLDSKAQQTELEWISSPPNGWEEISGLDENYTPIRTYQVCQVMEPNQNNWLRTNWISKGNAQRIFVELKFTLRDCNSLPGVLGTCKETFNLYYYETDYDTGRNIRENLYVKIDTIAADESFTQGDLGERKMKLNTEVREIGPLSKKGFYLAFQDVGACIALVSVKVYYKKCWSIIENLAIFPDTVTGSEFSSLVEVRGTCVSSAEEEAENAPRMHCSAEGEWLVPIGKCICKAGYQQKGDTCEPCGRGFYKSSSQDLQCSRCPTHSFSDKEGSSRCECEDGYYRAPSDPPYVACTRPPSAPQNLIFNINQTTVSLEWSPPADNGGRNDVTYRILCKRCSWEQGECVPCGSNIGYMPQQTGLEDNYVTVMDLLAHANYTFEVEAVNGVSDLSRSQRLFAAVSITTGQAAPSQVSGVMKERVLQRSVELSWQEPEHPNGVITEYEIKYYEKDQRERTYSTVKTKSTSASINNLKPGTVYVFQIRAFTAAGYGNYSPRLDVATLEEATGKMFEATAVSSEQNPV
# T3: human EphB3 extracellular region-SEAP-His protein (human, UniProt P54753 34-559)
# T3 construct: extracellular domain; also called hEphB3-SEAP-His
# T3 sequence (looked up): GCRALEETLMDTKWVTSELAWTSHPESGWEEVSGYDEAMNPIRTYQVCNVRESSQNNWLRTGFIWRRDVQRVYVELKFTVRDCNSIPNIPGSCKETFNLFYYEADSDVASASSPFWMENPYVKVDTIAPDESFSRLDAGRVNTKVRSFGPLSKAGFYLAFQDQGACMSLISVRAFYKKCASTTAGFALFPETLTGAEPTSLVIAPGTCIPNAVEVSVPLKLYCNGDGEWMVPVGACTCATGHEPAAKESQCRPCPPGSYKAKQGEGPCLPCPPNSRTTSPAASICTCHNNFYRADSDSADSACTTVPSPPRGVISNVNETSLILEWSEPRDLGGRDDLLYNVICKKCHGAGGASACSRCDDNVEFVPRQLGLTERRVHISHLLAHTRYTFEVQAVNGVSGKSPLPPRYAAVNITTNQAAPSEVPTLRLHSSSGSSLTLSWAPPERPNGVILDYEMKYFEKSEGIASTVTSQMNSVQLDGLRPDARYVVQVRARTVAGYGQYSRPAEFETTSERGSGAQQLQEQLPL
# T4: human EphB6 extracellular region-SEAP-His protein (human, UniProt O15197 32-594)
# T4 construct: extracellular domain; also called hEphB6-SEAP-His
# T4 sequence (looked up): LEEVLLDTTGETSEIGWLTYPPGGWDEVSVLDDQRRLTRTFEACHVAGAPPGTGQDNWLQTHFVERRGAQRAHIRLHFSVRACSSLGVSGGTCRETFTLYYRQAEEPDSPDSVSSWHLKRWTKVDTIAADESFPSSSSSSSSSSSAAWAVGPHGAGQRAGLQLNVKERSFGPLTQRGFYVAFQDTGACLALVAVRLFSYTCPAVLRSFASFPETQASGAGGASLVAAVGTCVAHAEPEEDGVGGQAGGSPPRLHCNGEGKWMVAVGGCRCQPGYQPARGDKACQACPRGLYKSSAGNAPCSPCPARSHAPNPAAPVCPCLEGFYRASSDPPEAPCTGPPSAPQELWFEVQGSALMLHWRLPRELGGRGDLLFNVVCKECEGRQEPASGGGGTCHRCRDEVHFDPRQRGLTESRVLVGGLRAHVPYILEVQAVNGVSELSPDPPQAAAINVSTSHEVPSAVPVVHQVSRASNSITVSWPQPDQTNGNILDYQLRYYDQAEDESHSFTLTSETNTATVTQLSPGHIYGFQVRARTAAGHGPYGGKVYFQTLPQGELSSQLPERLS
# B1: humanized antibody No. 134 (antibody, human IgG2)
# heavy: QVQLVQSGSELKKPGASVKVSCKASGYTFTDYSMHWVRQAPGQGLKWMGWINTETGEPTYAQGFTGRFVFSLDTSVSTAYLQISSLKAEDTAVYYCARIPLYYYGSRYWYFDVWGQGTTVTVSSASTKGPSVFPLAPSSRSTSESTAALGCLVKDYFPEPVTVSWNSGALTSGVHTFPAVLQSSGLYSLSSVVTVPSSNFGTQTYTCNVDHKPSNTKVDKTVERKSCVECPPCPAPPAAAPSVFLFPPKPKDTLMISRTPEVTCVVVDVSHEDPEVQFNWYVDGVEVHNAKTKPREEQFNSTFRVVSVLTVVHQDWLNGKEYKCKVSNKGLPAPIEKTISKTKGQPREPQVYTLPPSREEMTKNQVSLTCLVKGFYPSDIAVEWESNGQPENNYKTTPPMLDSDGSFFLYSKLTVDKSRWQQGNVFSCSVMHEALHNHYTQKSLSLSPG
# light: EIVMTQSPATLSVSPGERATLSCRASENIYRNLAWYQQKPGQSPRLLIYAATNLADGIPARFSGSGSGTEYTLTISSLQSEDFAVYYCQHFWGTPWTFGQGTKVEIKRTVAAPSVFIFPPSDEQLKSGTASVVCLLNNFYPREAKVQWKVDNALQSGNSQESVTEQDSKDSTYSLSSTLTLSKADYEKHKVYACEVTHQGLSSPVTKSFNRGEC
# notes: human Ig kappa; also called L2-4/HA2
# B2: humanized antibody No. 94 (antibody, human IgG1, kappa)
# heavy: QVQLVQSGSELKKPGASVKVSCKASGYTFTDYSMHWVRQAPGQGLKWMGWINTETGEPTYAQGFTGRFVFSLDTSVSTAYLQISSLKAEDTAVYYCARIPLYYYGSRYWYFDVWGQGTTVTVSSASTKGPSVFPLAPSSKSTSGGTAALGCLVKDYFPEPVTVSWNSGALTSGVHTFPAVLQSSGLYSLSSVVTVPSSSLGTQTYICNVNHKPSNTKVDKRVEPKSCDKTHTCPPCPAPPAAAPSVFLFPPKPKDTLMISRTPEVTCVVVDVSHEDPEVQFNWYVDGVEVHNAKTKPREEQFNSTFRVVSVLTVVHQDWLNGKEYKCKVSNKGLPAPIEKTISKTKGQPREPQVYTLPPSREEMTKNQVSLTCLVKGFYPSDIAVEWESNGQPENNYKTTPPMLDSDGSFFLYSKLTVDKSRWQQGNVFSCSVMHEALHNHYTQKSLSLSPG
# light: B1 light
# notes: as for B1
# B3: humanized antibody No. 93 (antibody, human IgG1, kappa)
# heavy: B2 heavy with K46E
# light: B1 light
# notes: human Ig kappa; also called L2-4/HA1
# B4: humanized antibody No. 133 (antibody, human IgG2)
# heavy: B1 heavy with K46E
# light: B1 light
# notes: as for B3
# B5: humanized antibody No. 135 (antibody, human IgG2)
# heavy: B1 heavy with K46E, Q62D, G63D, T65K
# light: B1 light
# notes: human Ig kappa; also called L2-4/HK1
# B6: humanized antibody No. 71 (antibody, human IgG1, kappa)
# heavy: B2 heavy with V2I
# light: B1 light
# notes: human Ig kappa; also called L2-4/HA4
# B7: humanized antibody No. 132 (antibody, human IgG2)
# heavy: B1 heavy with V2I
# light: B1 light
# notes: as for B6
# B8: humanized antibody No. 137 (antibody, human IgG2)
# heavy: B1 heavy with V2I, Q62D, G63D, T65K
# light: B1 light
# notes: human Ig kappa; also called L2-4/HK4
# B9: humanized antibody No. 73 (antibody, human IgG1, kappa)
# heavy: B2 heavy with V2I, Q62D, G63D, T65K
# light: B1 light
# notes: as for B8
# B10: humanized antibody No. 136 (antibody, human IgG2)
# heavy: B1 heavy with Q62D, G63D, T65K
# light: B1 light
# notes: human Ig kappa; also called L2-4/HK2
# Biological target: SEAP-His (UniProt P05187 23-511)
# Assay: ELISA
# Sequence of SEAP-His (P05187 23-511): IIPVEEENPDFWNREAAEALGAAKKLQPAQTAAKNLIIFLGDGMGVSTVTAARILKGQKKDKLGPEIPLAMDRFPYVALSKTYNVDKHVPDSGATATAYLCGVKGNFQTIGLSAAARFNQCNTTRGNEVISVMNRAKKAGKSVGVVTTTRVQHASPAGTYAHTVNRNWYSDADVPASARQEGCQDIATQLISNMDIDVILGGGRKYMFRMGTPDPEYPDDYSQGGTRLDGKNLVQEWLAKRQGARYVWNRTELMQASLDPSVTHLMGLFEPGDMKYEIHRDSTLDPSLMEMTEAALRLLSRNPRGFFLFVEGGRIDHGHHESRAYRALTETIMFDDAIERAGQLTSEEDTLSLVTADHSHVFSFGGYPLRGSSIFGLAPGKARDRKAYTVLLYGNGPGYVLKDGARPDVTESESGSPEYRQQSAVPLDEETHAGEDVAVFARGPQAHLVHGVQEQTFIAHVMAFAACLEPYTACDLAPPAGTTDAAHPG
row,Binder,A450 as % of hEphA4-SEAP-His [%]
1,B1,5.1
2,B2,6.7
3,B3,5
4,B4,4.7
5,B5,5.3
6,B6,5.6
7,B7,4.9
8,B8,5.9
9,B9,5.8
10,B10,5.2

# Biological target: T1, human EphA1 extracellular …
# Assay: ELISA
row,Binder,A450 as % of hEphA4-SEAP-His [%]
1,B1,5.1
2,B2,6.5
3,B3,5
4,B4,4.9
5,B5,5.2
6,B6,5.6
7,B7,4.8
8,B8,6.1
9,B9,6
10,B10,5.3

# Biological target: T5, human EphA5 extracellular region-SEAP-His protein (human, UniProt P54756 25-573)
# T5 construct: extracellular domain; also called hEphA5-SEAP-His
# Assay: ELISA
# T5 sequence (P54756 25-573): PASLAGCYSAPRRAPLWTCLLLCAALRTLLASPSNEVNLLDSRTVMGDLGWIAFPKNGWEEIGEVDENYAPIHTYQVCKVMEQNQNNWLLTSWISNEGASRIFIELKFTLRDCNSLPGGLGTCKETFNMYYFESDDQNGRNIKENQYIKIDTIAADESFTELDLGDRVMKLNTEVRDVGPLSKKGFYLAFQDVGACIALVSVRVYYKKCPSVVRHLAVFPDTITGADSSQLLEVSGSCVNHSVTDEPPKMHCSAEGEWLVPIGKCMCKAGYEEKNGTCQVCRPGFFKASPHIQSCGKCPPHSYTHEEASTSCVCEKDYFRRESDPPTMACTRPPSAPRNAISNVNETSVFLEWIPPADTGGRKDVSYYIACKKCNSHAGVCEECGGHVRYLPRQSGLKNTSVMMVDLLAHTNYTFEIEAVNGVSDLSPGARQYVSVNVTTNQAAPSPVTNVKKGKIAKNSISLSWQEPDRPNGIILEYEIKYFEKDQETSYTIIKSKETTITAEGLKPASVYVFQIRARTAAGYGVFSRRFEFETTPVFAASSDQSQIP
row,Binder,A450 as % of hEphA4-SEAP-His [%]
1,B1,5.2
2,B2,6.5
3,B3,4.9
4,B4,4.7
5,B5,5
6,B6,5.6
7,B7,4.7
8,B8,5.7
9,B9,6
10,B10,5.2

# Biological target: T2, human EphA7 extracellular …
# Assay: ELISA
row,Binder,A450 as % of hEphA4-SEAP-His [%]
1,B1,5.1
2,B2,6.1
3,B3,4.9
4,B4,4.6
5,B5,5.2
6,B6,5.2
7,B7,4.5
8,B8,5.8
9,B9,5.6
10,B10,5.4

# Biological target: T3, human EphB3 extracellular …
# Assay: ELISA
row,Binder,A450 as % of hEphA4-SEAP-His [%]
1,B1,5.2
2,B2,6.7
3,B3,5.1
4,B4,4.7
5,B5,5
6,B6,5.5
7,B7,4.7
8,B8,5.7
9,B9,5.8
10,B10,5.5

# Biological target: T4, human EphB6 extracellular …
# Assay: ELISA
row,Binder,A450 as % of hEphA4-SEAP-His [%]
1,B1,5.2
2,B2,6.4
3,B3,4.9
4,B4,4.8
5,B5,5.3
6,B6,5.3
7,B7,4.7
8,B8,5.7
9,B9,5.6
10,B10,5.5
